According to publication PMC12090219, “Reversible Substrate-Specific Photocontrol of the Chemotherapeutic Asparaginase(-Glutaminase) from Escherichia coli” (ACS Catalysis, 2025):
Changes are numbered by the printed parent chain.

Experiments:
[1] = biological target: T1, wild-type Escherichia coli type II asparaginase (E. coli), P00805; assay: SEC-MALS; analytical size-exclusion chromatography with static light scattering detection; 40 uM EcAII on S200 10/300 GL in 50 mM Tris/HCl pH 7.0, 100 mM NaCl; detection at 280 and 334 nm; conditions: remark: other sources report otherwise
T1 chain: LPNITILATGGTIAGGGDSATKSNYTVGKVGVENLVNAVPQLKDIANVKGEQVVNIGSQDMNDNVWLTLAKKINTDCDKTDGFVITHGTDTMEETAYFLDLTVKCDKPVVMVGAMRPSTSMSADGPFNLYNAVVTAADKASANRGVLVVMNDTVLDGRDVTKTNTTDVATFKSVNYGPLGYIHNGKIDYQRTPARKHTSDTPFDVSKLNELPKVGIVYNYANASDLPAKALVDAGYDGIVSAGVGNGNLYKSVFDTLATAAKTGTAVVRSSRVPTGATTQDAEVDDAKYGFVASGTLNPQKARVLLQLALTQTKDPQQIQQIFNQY

[2] = biological target: the molecule itself; assay: as above

B1: wild-type Escherichia coli type II asparaginase, P00805 23-348 (enzyme)
chain: T1 chain
stoichiometry N [1]: 4

B2: EcAII-S19AzoF (enzyme, E. coli)
chain: T1 chain with S19F
modifications: phenylalanine-4'-azobenzene (AzoF) at position 19
notes: type II L-asparaginase (EcAII) from E. coli, gene ansB, UniProt P00805, with the unnatural amino acid AzoF in place of S19; The new residue is the unnatural amino acid phenylalanine-4'-azobenzene; the as-isolated state is ~100% E; also called EcAII with phenylalanine-4'-azobenzene at position S19
stoichiometry N [2]: 4

B3: EcAII-T21AzoF (enzyme, E. coli)
chain: T1 chain with T21F
modifications: phenylalanine-4'-azobenzene (AzoF) at position 21
notes: type II L-asparaginase (EcAII) from E. coli, gene ansB, UniProt P00805, with the unnatural amino acid AzoF in place of T21; The new residue is the unnatural amino acid phenylalanine-4'-azobenzene; the as-isolated state is ~100% E; also called EcAII with phenylalanine-4'-azobenzene at position T21
stoichiometry N [2]: 4
